Laboratory results from publication PMC6765145.
Like-named read-outs stand apart in the source and are kept apart here.

Key:
Assay in all cases: EMSA
[1] = target: T1, Aca2 (Pectobacterium carotovorum temperate …, UniProt H9C180 1-116)
T1 sequence: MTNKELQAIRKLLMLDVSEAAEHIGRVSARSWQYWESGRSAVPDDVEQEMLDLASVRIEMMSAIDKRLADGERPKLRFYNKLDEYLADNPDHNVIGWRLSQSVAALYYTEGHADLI

[2] = target: T1, Aca2; remark: listed apart in the source
[3] = target: T1, Aca2; remark: listed apart in the source

B1: wtIR1-scIR2 promoter probe (dsDNA)
DNA 1: CACGAATGCGGCCTTAGCGATTAAAAAATATGAAATGCCTTGCTTGTTCGCGATTGCGAACATATAATTTATTCATCGGAGACTACTGCAGGTCTTCGCTCCTAACGAGGATTCCACAATGC
DNA 2: GCATTGTGGAATCCTCGTTAGGAGCGAAGACCTGCAGTAGTCTCCGATGAATAAATTATATGTTCGCAATCGCGAACAAGCAAGGCATTTCATATTTTTTAATCGCTAAGGCCGCATTCGTG
Kd [1]: 1.07 nM

B2: scIR1-scIR2 promoter probe (dsDNA)
DNA 1: CACGAATGCGGCCTTAGCGATTAAAAAATATGAAATGCCTTGCTTGAGACACGAGAGTCTCATATAATTTATTCATCGGAGACTACTGCAGGTCTTCGCTCCTAACGAGGATTCCACAATGC
DNA 2: GCATTGTGGAATCCTCGTTAGGAGCGAAGACCTGCAGTAGTCTCCGATGAATAAATTATATGAGACTCTCGTGTCTCAAGCAAGGCATTTCATATTTTTTAATCGCTAAGGCCGCATTCGTG
binding result [2]: no binding

B3: scIR1-wtIR2 promoter probe (dsDNA)
DNA 1: CACGAATGCGGCCTTAGCGATTAAAAAATATGAAATGCCTTGCTTGAGACACGAGAGTCTCATATAATTTATTCATCGGTTCGAGATGGCTCGAATCGCTCCTAACGAGGATTCCACAATGC
DNA 2: GCATTGTGGAATCCTCGTTAGGAGCGATTCGAGCCATCTCGAACCGATGAATAAATTATATGAGACTCTCGTGTCTCAAGCAAGGCATTTCATATTTTTTAATCGCTAAGGCCGCATTCGTG
binding result [3]: no binding
